Measured values: patent US20170137838
Where two headings read alike, the source gives them in different places.

Tested on: ONAC131 (Os12g03040.1) (Oryza sativa subsp. japonica cv. Nipponbare)
[1] = relative to SO1, SD 0.05, CELD assay
[2] = relative to SO1, SD 0.03, CELD assay
[3] = relative to SO1, SD 0.01, CELD assay

**Q.** How did the binding signal (relative to SO1, SD 0.03, same sequence as rice chitinase site I) turn out when “GCCAGCGTTCTGTTTCTGTACGTCTCTCTGGG (double strand) [Arabidopsis glyoxalase I family 5'-UTR element]” was run?
**A.** Its binding signal is 1.07.

**Q.** “TTCCGTAGTTTACTGGATCACGACACACACAC (double strand) [Rice chitinase site III]” was tested. Which binding signal (relative to SO1, SD 0.02, CELD assay) did it give?
**A.** Its binding signal is 0.15.

**Q.** For “GAGATCCGTGCACAGTAAATAACTGTTACA (double strand) [SO1m14]”, which binding signal (relative to SO1, CELD assay) is on record?
**A.** Its binding signal is 0.

**Q.** With “GATTTGTCTCGTAATTTACACGTAATCTGTGT (double strand) [Rice ZIM family protein promoter element]” as the sequence, how does the binding signal [1] read?
**A.** Its binding signal is 0.43.

**Q.** With “CACTTGACACGTGGGATCCACGTCACCATCCT (double strand) [Rice glyoxalase I family promoter element]” as the sequence, how does the binding signal [2] read?
**A.** The binding signal was 0.29.

**Q.** With “AATCCACCGCCATAAATCTACGTAACAAGTCA (double strand) [Rice chitinase site II]” as the sequence, how does the binding signal (relative to SO1, CELD assay) read?
**A.** The binding signal was 0.

**Q.** With “GAGGCCCTTAATGTTTACACGTCTCTAGTG (double strand) [SO39m6]” as the sequence, how does the binding signal [3] read?
**A.** The binding signal was 0.18.

**Q.** Which binding signal [1] does the source give for “GAGGTGTTTAATGTTTACACGTCTCTAGTG (double strand) [SO39 (TaNAC69 high affinity binding site II)]” here?
**A.** The binding signal was 0.93.

**Q.** With “GAGATCTGTGCACAGTACGTAACTGTTACA (double strand) [SO1m28]” as the sequence, how does the binding signal [3] read?
**A.** Its binding signal is 0.01.

**Q.** For “GAGATCCGTGCACAGTACGTAACTGTTACA (double strand) [SO1 (TaNAC69 high affinity binding site I)]”, which binding signal (CELD reporter assay on streptavidin plate, reference, SD 0.03, pH 7.0, 50 mM KCl, 2 mM MgCl2) is on record?
**A.** The binding signal was 1.

**Q.** “GCCAGCGTTCTGTTTCTGTACGTCTCTCTGGG (double strand) [Rice chitinase site I]” was tested. Which binding signal [2] did it give?
**A.** The binding signal was 1.07.
